Measured values from US20160168212A1 (RAMOT AT TEL AVIV UNIVERSITY, published 2016).

Target: α-synuclein (recombinant, monomeric fraction) (UniProt P37840 1-140)
Assay: fluorescence anisotropy; α-syn monomers titrated into the Trp-containing peptide
Protocol: The solution was immediately mixed with α-syn monomer stock solution to varying final concentrations. The peptide polarization measurements were carried out using an ISS K2 fluorometer. The solutions were excited at 280 nm and emission was monitored at 350 nm. For each single point, at least five measurements were collected and their average values were used for the calculation. All experiments were performed using ultra pure water.

- Kd: ~1000 nM
B1: β-syn 36 in which tyrosine was substituted with tryptophan (peptide)
peptide: GVLWVGSKTR
notes: also called β-syn 36 containing Tryptophan instead of Tyrosine
